Where a chain is given by its changes, count along the chain named. Values joined by “and” are separate entries in the source; they are usually repeats but may differ in a detail not shown here. Equal values may be shown once. Read-outs that look alike come from different tables or passages of the source.

The values that follow come from patent publication US20120282269A1 (Boehringer Ingelheim, published 2012).

Test in all cases: cell-based or functional assay
The target in one experiment is T1, human IL-12 (human, UniProt P29459 23-219; P29460 23-328).
T1 sequence (looked up) 1: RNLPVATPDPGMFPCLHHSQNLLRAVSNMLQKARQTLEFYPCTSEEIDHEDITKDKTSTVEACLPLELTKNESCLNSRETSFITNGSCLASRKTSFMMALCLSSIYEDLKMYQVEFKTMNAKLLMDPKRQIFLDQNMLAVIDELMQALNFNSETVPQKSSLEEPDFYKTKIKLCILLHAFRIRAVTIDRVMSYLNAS
T1 sequence (looked up) 2: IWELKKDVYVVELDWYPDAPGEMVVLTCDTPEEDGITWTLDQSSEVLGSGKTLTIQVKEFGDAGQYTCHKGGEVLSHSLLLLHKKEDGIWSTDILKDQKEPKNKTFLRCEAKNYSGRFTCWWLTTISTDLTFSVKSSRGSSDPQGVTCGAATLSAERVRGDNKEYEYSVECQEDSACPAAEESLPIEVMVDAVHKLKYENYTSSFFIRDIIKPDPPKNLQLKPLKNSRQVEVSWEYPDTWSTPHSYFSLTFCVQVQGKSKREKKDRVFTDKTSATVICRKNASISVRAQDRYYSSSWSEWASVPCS

The target in experiment [1] is T2, recombinant human IL-23 (human, UniProt P29460 23-328).
T2 sequence 1: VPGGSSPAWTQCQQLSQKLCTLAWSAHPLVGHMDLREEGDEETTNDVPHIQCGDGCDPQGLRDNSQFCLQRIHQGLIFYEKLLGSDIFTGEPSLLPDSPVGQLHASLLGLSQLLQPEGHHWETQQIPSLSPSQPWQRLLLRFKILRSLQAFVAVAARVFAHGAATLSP
T2 sequence 2: T1 sequence (looked up) 2

Experiment [2] deals with T3, natural human IL-23 from activated THP-1 cells (human, UniProt P29460 23-328).
T3 sequence 1: T2 sequence 1
T3 sequence 2: T1 sequence (looked up) 2

Experiment [3] addresses T2, recombinant human IL-23. The source holds these as a separate data set.
Experiment [4] has as its target recombinant human IL-23 (human) (UniProt P29460).
In experiment [5] the target is natural human IL-23 from activated THP-1 cells (human) (UniProt P29460).
For experiment [6], the target named is T2, recombinant human IL-23. The source holds these as a separate data set.

B1: Chimeric 6B8 (antibody, IgG1, V domains shown)
VH: QVQLQQSDAELVKPGTSVKTSCKISGNTFTDQTIHWMKQRPEQGLEWIGYIYPRDDSPKYNENFKGKATLTADKSSSTAYMQLNSLTSEDSAVYFCAIPDRSGYAWFIYWGQGTLVTVSS
VL: DIVMTQSHKFLSTSVGDRVTITCKASRDVAIAVAWYQQKPGQSPKLLLFWASTRHTGVPDRFTGSGSRTDFTLTISNVQSEDLADYFCHQYSSYPFTFGSGTKLEIK
Consider B1, for which the “Average pg/ml IFN-γ +/- Standard Deviation, human PHA-derived T cell blasts with 1 ng/ml IL-12 (no antibody: 532 +/- 51; unstimulated: 87 +/- 7)” value with human IL-12 worked out at 523 pg/mL. In addition, the “IC50, inhibition of IL-17 production from IL-23 stimulated mouse splenocytes” value (shortened to “IC50, inhibition of IL-17 production”) with recombinant human IL-23 [1] is 0.026 nM and 0.037 nM and 0.057 nM; in experiment [2], 0.005 nM and 0.002 nM and 0.006 nM and 0.003 nM.

B2: 34D9 (antibody, V domains shown)
VH: EVQLQQSGPELVKPGASVKIPCKASGYTFTDYNMDWVKKSHGKSLEWIGDINPHNGGTIYNQKFKGKATLTVDKSSSTAHMELRSLTSEDTAVYYCARNYYGSSYGWYFDVWGTGTTVTVSS
VL: DIMMTQSHKFMSTSVGDRVSITCKASQDVGNAVVWYQQKPGQSPKLLIYWASTRHIGVPDRFTGSGSGTDFTLTITNVQSEDLADYFCQQYSSYLTFGAGTKLELK
Regarding B2, the “IC50, inhibition of IL-17 production” value was 0.51 nM in the experiment with recombinant human IL-23 [1] and 0.456 nM in experiment [2].

B3: Chimeric 18E5 (antibody, V domains shown)
VH: EVQLQQSGPELVKPGAAVKMSCKASGYTFTRYLIHWVKQKPGQGLEWIGYINPYNDGTKYNEKFKGKATLTSDKSSSTAYMELSSLTSEDSAVYYCTSNWDLDYWGQGTTLTVSS
VL: DIVMTQSPATLSVTPGDRVSLSCRASQSISDYLYWYQQKSHESPRLLIKFASQSISGIPSRFTGSGSGSDFTLSIDSVEPDDVGVFFCQNGHSFPFTFGGGTKLEIK
In the case of B3, in the experiment with human IL-12, the “Average pg/ml IFN-γ +/- Standard Deviation, human PHA-derived T cell blasts with 1 ng/ml IL-12 (no antibody: 532 +/- 51; unstimulated: 87 +/- 7)” value was found to be 511 pg/mL. Besides, the “IC50, inhibition of IL-17 production” value with recombinant human IL-23 [1] was 0.031 nM.

B4: Chimeric 24A5 (antibody, V domains shown)
VH: EVQLQQSGPELVKPGASVKMSCKASGYTFTTSIMHWVKQKPGQGLEWIGYINPYDDVTKYNEKFKGKATLTSDKSSSTAYMELSSLTSEDSAVYYCVRRWDEAYWGQGTLVTVSA
VL: B3 VL with D17N, Y34H, F50Y, T63S, D70N, D76N, D81E, F86Y, F87Y, G100S
In the case of B4, the “IC50, inhibition of IL-17 production” value in the experiment with recombinant human IL-23 [1] is 0.404 nM; in experiment [2], 0.095 nM and 0.102 nM.

B5: Antibody 6H12 (disclosed in WO 2007/027714) (antibody, from another filing, V domains shown)
VH: EVHLQQSGPELVKPGASVKMSCKASGYTFNRYLIHWVKQKPGQGLEWIGYINPNNDGTNYNEKFKGKATLTSDKSSSTAYMELSSLTSEDSAVYYCAANWDQAYWGQGTLVTVSA
VL: DIVMTQSPATLSVTPGDRVSLSCRASQSISDYLHWYQQKSHESPRLLIKYTSQSISGIPSRFSGSGSGSDFTLSINSVEPEDVGVYYCQNGHSFPFTFGSGTKLEIKR
On to B5, for which the IC50, inhibition of IL-17 production from IL-23 stimulated mouse splenocytes with recombinant human IL-23 [3] was 1.6 nM and 0.806 nM and 1.3 nM.

B6: Antibody C1273 (disclosed in WO 2007/005955) (antibody, from another filing, V domains shown)
VH: DVNLVESGGGLVKPGGSLKLSCAASGFTFSSYTMSWVRQTPEKRLEWVATISSGGTYTYYPDSVKGRFTISRDNAKNTLYLQMSSLKSEDTAMFYCTRDNHAYDRGPFFDYWGQGATLTVSS
VL: DIVMSQSPSSLVVSVGEKVTMSCKSSQNLFYRSNQKNHLAWYQQKPGQSPTLLIYWTSTRESGVPDRFTGSGSGTDFTLTISRVKAEDLAVYYCQQYYSYPPTFGGGTKLEIK
Regarding B6, the IC50, inhibition of IL-23 induced STAT3 phosphorylation in human DB cells in experiment [4] is 0.163 nM and 0.438 nM. In addition, in experiment [5], the IC50, inhibition of IL-17 production from IL-23 stimulated mouse splenocytes is 0.093 nM and 0.044 nM.

B7: Antibody A (antibody, human IgG1, kappa, L234A L235A, V domains shown)
VH: QVQLVQSGAEVKKPGSSVKVSCKASGYTFTDQTIHWMRQAPGQGLEWIGYIYPRDDSPKYNENFKGKVTITADKSTSTAYMELSSLRSEDTAVYYCAIPDRSGYAWFIYWGQGTLVTVSS
VL: DIQMTQSPSSLSASVGDRVTITCKASRDVAIAVAWYQQKPGKVPKLLIYWASTRHTGVPSRFSGSGSRTDFTLTISSLQPEDVADYFCHQYSSYPFTFGSGTKLEIKR
Turning to B7, the “Average pg/ml IFN-γ +/- Standard Deviation, human PHA-derived T cell blasts with 1 ng/ml IL-12 (no antibody: 532 +/- 51; unstimulated: 87 +/- 7)” value with human IL-12 worked out at 497 pg/mL. The “IC50, inhibition of IL-17 production” value with recombinant human IL-23 [1] is 0.005 nM and 0.015 nM; in experiment [2] it was 0.001 nM.

B8: Antibody B (antibody, human IgG1, kappa, L234A L235A, V domains shown)
VH: B7 VH with Y27F, M37V, I48M, I70L
VL: B7 VL
As for B8, the “IC50, inhibition of IL-23 induced STAT3 phosphorylation in human DB cells” value (“IC50, inhibition … in human DB cells” for short) with recombinant human IL-23 [6] was 0.073 nM and 0.084 nM. Besides, the “Average pg/ml IFN-γ +/- Standard Deviation, human PHA-derived T cell blasts with 1 ng/ml IL-12 (no antibody: 532 +/- 51; unstimulated: 87 +/- 7)” value with human IL-12 was 537 pg/mL. Further, the “IC50, inhibition of IL-17 production” value in experiment [2] is 0.009 nM and 0.008 nM.

B9: Antibody C (antibody, human IgG1, kappa, L234A L235A, V domains shown)
VH: B7 VH
VL: B7 VL with I48L, Y49F, S60D, R68G, V83L, F87Y, S100Q
Consider B9, for which the “IC50, inhibition … in human DB cells” value with recombinant human IL-23 [6] is 0.132 nM and 0.08 nM. For the same molecule, the “Average pg/ml IFN-γ +/- Standard Deviation, human PHA-derived T cell blasts with 1 ng/ml IL-12 (no antibody: 532 +/- 51; unstimulated: 87 +/- 7)” value in the experiment with human IL-12 amounted to 495 pg/mL. Also, the “IC50, inhibition of IL-17 production” value in experiment [2] was 0.016 nM and 0.032 nM.

B10: Antibody D (antibody, human IgG1, kappa, L234A L235A, V domains shown)
VH: B7 VH with Y27F, M37V, I48M, I70L
VL: B7 VL with I48L, Y49F, S60D, R68G, V83L, F87Y, S100Q
As for B10, in the experiment with recombinant human IL-23 [6], the “IC50, inhibition … in human DB cells” value came out at 0.158 nM. For the same molecule, in the experiment with human IL-12, the “Average pg/ml IFN-γ +/- Standard Deviation, human PHA-derived T cell blasts with 1 ng/ml IL-12 (no antibody: 532 +/- 51; unstimulated: 87 +/- 7)” value came out at 539 pg/mL. For the same molecule, the “IC50, inhibition of IL-17 production” value is 0.236 nM and 0.225 nM and 0.614 nM and 0.458 nM in the experiment with recombinant human IL-23 [1]; 0.133 nM and 0.125 nM in experiment [2].
